Test system: MS2 coat protein
Assay: apparent KD of MS2 coat protein; designed switch direction (-1 OFF switch, 1 ON switch): -1; higher = weaker reporter binding
How it was run: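 Normalised cluster fluorescence was curve-fitted, and each design's median over clusters is its apparent KD. Before this, SNAP-549-labelled MS2 coat protein was titrated from 0.7 or 1.5 nM, doubling to 3 µM, over RNA switches transcribed on Illumina chips by stalled E. coli RNA polymerase. Titrations had no input, 200 uM small-molecule ligand, or an oligonucleotide input, and steps lasted 0.8–1.5 h (lowest) to 10–20 min (highest).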

[1] = Eterna round: R95, input ligand: microRNA oligo, concentration not stated
[2] = input ligand: microRNA oligo, concentration not stated
[3] = Eterna round: R95, input ligand: FMN 200 uM
[4] = Eterna round: R95, input ligand: none

Sequence | apparent KD of MS2 coat protein [1] | apparent KD of MS2 coat protein (input ligand: FMN 200 uM) | apparent KD of MS2 coat protein (input ligand: none) | apparent KD of MS2 coat protein [2] | apparent KD of MS2 coat protein [3] | apparent KD of MS2 coat protein [4]
CCUCCACAUGAGGAUCACCCAUGUCAGGAUAUCGUGUGUGCGUUUUCGGUCUUUCGCGCGAGAAGGGACGUCUG (puzzle: Exclusion 1) | 28.8 nM | – | – | – | – | –
CCUCCGGCAGGAUAUGCAGGGAGGAUGUUGUGUUAUUGGUAACAUGAGGAUCACCCAUGUAGAAGGGCCAAUAC [Eternabot (L2) Solution 42] (Eterna round: R97, puzzle: Exclusion 2) | – | 17.9 nM | 15 nM | – | – | –
CCUCUACAUGAGGAUCACCCAUGUGAGGAUAUCAAAGCCAGAACGGAUCUCUGGCCCAUGAGAAGGUGCAUGGA [EX1 A.2] (Eterna round: R97, puzzle: Exclusion 1) | – | 119 nM | 22.3 nM | – | – | –
CCUCUACAUGAGGAUCACCCAUGUGAGGAUAUCCUGCGAGGAUCAAAAGAUCCUCGUGGGAGAAGGCAUAUGUA [Omei Ex1 A2] (Eterna round: R97, puzzle: Exclusion 1) | – | 30.6 nM | 24.8 nM | – | – | –
CCUGCACAUGAGGAUCACCCAUGUCAGGAUAUCUCGCCGCGAAGAGCAACACGGUAUUAGAGAAGGGACACGGG [Bimavees] (puzzle: Exclusion 1) | 24.5 nM | – | – | – | – | –
CCUGCGGACAAAGGAUAUUGCGGUGACCGGCUCGGCGUACCGAGCCUACAUGAGGAUCACCCAUGUAAGAAGGUUGUCGCUGGU [JL ViennaUCT Qudice mod 2] (Eterna round: R96, puzzle: Exclusion NG 2) | – | 104 nM | 24.8 nM | 19.1 nM | – | –
CCUUCUCCACAGGAUAUGCUCAUCUAAUGAUGAGCAGAAGGGUGGACAUGAGGAUCACCCAUGUUUAUCAAUGG [Omei Ex6 D2] (Eterna round: R97, puzzle: Exclusion 6) | – | 589 nM | 428 nM | – | – | –
CCUUGACAUGAGGAUCACCCAUGUGAGGAUAUGAUGCGAUCGUCGAAAGACGAUAGCAUCAGAAGGCACAUAUG [Fiskers Ex 1 - 8] (Eterna round: R96, puzzle: Exclusion 1) | – | 91.8 nM | 24.4 nM | 12.8 nM | – | –
CCUUGACAUGAGGAUCACCCAUGUGAGGAUAUGAUGCGAUCGUCGAAAGACGAUAGCAUCAGAAGGCACAUAUG [Fiskers Ex 1 - 8] (puzzle: Exclusion 1) | 25.2 nM | – | – | – | – | –
CCUUGUCUGAAGGAUAUCCGCCGAAAAGGCAAGGGAGAAGGUUAGACAUGAGGAUCACCCAUGUGCCGGUGUAA [EX6 A.3] (Eterna round: R97, puzzle: Exclusion 6) | – | 44.2 nM | 25.5 nM | – | – | –
CCUUUGUCAGGAUAUCAGAACGCGCUCGUAGGGAGCGCAAAUGAGAAGGGACAUGAGGAUCACCCAUGUAAAGA [Gequleon] (puzzle: Exclusion 4) | 43.6 nM | – | – | – | 204 nM | 48.2 nM
CGAAUGUCAGGAUAUCGUGCAUACAACGAAAGUUCUAUGUGCGAGAAGGGACAUGAGGAUCACCCAUGUCUUCG [Omei Ex4 A14] (Eterna round: R97, puzzle: Exclusion 4) | – | 75.6 nM | 27.1 nM | – | – | –
CGACUGGUAGGAUAUACAUGAGGAUCACCCAUGUACCUGACAUGAGAAUAAACCAUCGGUAGAAGGGCUAAGUC [Eternabot (L2) Solution 79] (Eterna round: R97, puzzle: Exclusion 3) | – | 21.8 nM | 21.3 nM | – | – | –
CGAGUGUAAGGAUAUUCGGCGCCAGAGAACGAUCUGACGUAGAAGAAGGUACAUGAGGAUCACCCAUGUGGUUA [Geinzarace] (puzzle: Exclusion 4) | 102 nM | – | – | – | 41.6 nM | 204 nM
CGAUAAAGCUGAGGAUAUGAGGAGAGAGAGAGAUCAGAAGGCAGACAUGAGGAUCACCCAUGUGAGUUCUCGAAAUUAAAUAUU [Prohibition 48 - Jieux - Exclusion NG 1] (Eterna round: R96, puzzle: Exclusion NG 1) | – | 225 nM | 57.5 nM | 47 nM | – | –
CGAUGAGGAGUGAGGAUAUCGUGUUCGAAAGAACGUGAGAAGGCACAUGAGGAUCACCCAUGUGAUACUUGUCG [Omei Ex4B A15] (Eterna round: R97, puzzle: Brourd's mod of Exclusion 4) | – | 60.9 nM | 19.6 nM | – | – | –
CGAUGCACGAGUCCACAUGAGGAUCACCCAUGUCGUGUUAGCGAGGAUAUCGGAGACACAUAGUAUGAGAAGGCGCGAACCUGA [Ex NG3 #21] (Eterna round: R96, puzzle: Exclusion NG 3) | – | 16.4 nM | 13.4 nM | 11.2 nM | – | –
CGCGAACAUGAGGAUCACCCAUGUGAGGAUAUCAUGCUUCGUAGUAAACUACGAAGUGUGAGAAGGCACAUGCG [Omei Ex1 D5] (Eterna round: R97, puzzle: Exclusion 1) | – | 297 nM | 164 nM | – | – | –

Sequence | apparent KD of MS2 coat protein [1] | apparent KD of MS2 coat protein (input ligand: FMN 200 uM) | apparent KD of MS2 coat protein (input ligand: none) | apparent KD of MS2 coat protein [2] | apparent KD of MS2 coat protein [3] | apparent KD of MS2 coat protein [4]
CGCGGAUGUAUAUGUCCGCACAUGAGGAUCACCCAUGUAAUAUAAGAUGAUAUUAAACAAAUUUUUGCUUGUCAGUU [Eternabot (L1) Solution 37] (Eterna round: R97, puzzle: Sensor, turn-off variant 1) | – | 31 nM | 38.2 nM | – | – | –
CGCUAUAGAGGAUAUACGAGAUCGAAAGAUCGGCGAUCCCUACAUGAGGAUCACCCAUGUAGAAGGCUAUAGCG [Mod 18 - Jieux - Exclusion 2] (Eterna round: R97, puzzle: Exclusion 2) | – | 83.3 nM | 15.7 nM | – | – | –
CGCUGGACAGGAUAUGUUCUUGGGCACUUGAGGAUCACCCAAGUCAUCGAGACAACAGGCACAGAAGGGUUUAUGG [salish99_ex5_r4_024] (Eterna round: R97, puzzle: Exclusion 5) | – | 30.7 nM | 38.4 nM | – | – | –
CGGAAGAUCGAAGGAUAUUGAGACAAACAGUGUCAAGAAGGUUGGGAGGACACAUGAGGAUCACCCAUGUCCAACUUUUGACGG [Eternabot solution 26] (Eterna round: R96, puzzle: Exclusion NG 1) | – | 12.7 nM | 12.4 nM | 9.76 nM | – | –
CGGCAAUCCUAGGAUAUGCUAGACGAGAGUCUAGCAGAAGGAGGAACAUGAGGAUCACCCAUGUGUCCUAGCCG [Mat - Exclusion 6 - Eli Mod - D15] (Eterna round: R97, puzzle: Exclusion 6) | – | 22.1 nM | 15.6 nM | – | – | –
CGGCGACAUGAGGAUCACCCAUGUGAGGAUAUGACGGGAAAAGCGUGAGCGGUUUGUGUCAGAAGGCGCGUAGG [salish99_ex1_r4_084] (Eterna round: R97, puzzle: Exclusion 1) | – | 20.8 nM | 28.7 nM | – | – | –
CGGGACGUCCUGAUAAUAAGACAUGAGGAUCACCCAUGUCGGCAGGAUAUCAGUCCUUACGGUUUUGAGAAGGGUCGACAACCA [Birace] (Eterna round: R96, puzzle: Exclusion NG 3) | – | 14.1 nM | 13.4 nM | 8.27 nM | – | –
CGGUCCUGAGUGAGGAUAUUGUCAGGCGAAGCCUGCAAGAAGGUACUUGAGGAUCACCCAAGUACGCUCUUGGC [Estimama] (Eterna round: R97, puzzle: Brourd's mod of Exclusion 4) | – | 21.2 nM | 16.8 nM | – | – | –
CGGUGCUGAGGAUAUACAUGAGGAUCACCCAUGUGUUCCAGCUAGGUGACUGGCAAAUGUAGAAGGCGGUACUG [JL-ex3-3.36 Brourd mod] (puzzle: Exclusion 3) | 77.7 nM | – | – | – | 40.7 nM | 105 nM
CGGUGCUGAGGAUAUACAUGAGGAUCACCCAUGUGUUCCAGCUAGGUGACUGGCGGAUGUAGAAGGCGGUACUG [JL-ex3-3.39 Brourd mod] (puzzle: Exclusion 3) | 31.2 nM | – | – | – | 245 nM | 64.8 nM
CGGUGUAGAGGAUAUACGUGGAUAUAAGAACAUGAUAAUUUACAUGAGGAUCACCCAUGUAGAAGGCUAUAGCG [JR_Ex2_Sub080] (Eterna round: R97, puzzle: Exclusion 2) | – | 74.8 nM | 207 nM | – | – | –
CGUACUGAAGUGAGGAUAUUGUCUCGGAUACGAAACAAGAAGGCACAUGAGGAUCACCCAUGUUGACAGUACGA [Malc #30 mod 7] (puzzle: Brourd's mod of Exclusion 4) | 15 nM | – | – | – | – | –
CGUAUGUCAGGAUAUCGUGCAUACAACGAAAGUUCUAUGUGCGAGAAGGGACAUGAGGAUCACCCAUGUUUACG [Omei Ex4 A12] (Eterna round: R97, puzzle: Exclusion 4) | – | 89 nM | 26.1 nM | – | – | –
CGUCAGUGAGGAUAUGGUAACAUUUACAUGAGGAUCACCCAUGUUUCAUGGGACUAAAGACUAGAAGGCACUGACG [JR_Ex5_Sub031] (Eterna round: R97, puzzle: Exclusion 5) | – | 80.9 nM | 36.9 nM | – | – | –
CGUCGAAAUGUAGGAUAUCUGCACGUGUAGUGCAGAGAAGGACAUGAGGAUCACCCAUGUAGAUCACGACGAAUUAAUUUAAUU [ENG1/5-C3] (Eterna round: R96, puzzle: Exclusion NG 1) | – | 468 nM | 56.9 nM | 50.4 nM | – | –
CGUGCGUAUGUGAGGAUAUGCUGGUCCUUGGAUCAGCAGAAGGCACAUGAGGAUCACCCAUGUGGUGUCGUACC [salish99_Bmod_Ex4_001] (puzzle: Brourd's mod of Exclusion 4) | 170 nM | – | – | – | – | –
CGUGUCUUUUACGUGAGUGGUGGGUGCAACAGGUGGGUUACAUGAGGAUCACCCAUGUGCUCACUUGCUCGUCUUUU [Grok-var2-09] (puzzle: Sensor v3, turn-off variant 2) | 39.3 nM | – | – | – | 60.7 nM | 58.1 nM

From the supplement of paper PMC9170038
